# Reference: patent US20240181007A1, “COMPOSITIONS AND METHODS FOR TREATING PULMONARY HYPERTENSION” (Acceleron Pharma Inc., priority 2021, published 2024)
# What was measured:
# [1] = target: T1, Activin A (Homo sapiens, UniProt P08476); test: A204 cell-based pGL3(CAGA)12 reporter gene assay, signaling by activin A; conditions: for Inhibitory Potency of Homodimeric ActRIIB-Fc Constructs IC50 Activin A: Table 5, A204 cells, luciferase reporter
# T1 sequence (P08476 311-426): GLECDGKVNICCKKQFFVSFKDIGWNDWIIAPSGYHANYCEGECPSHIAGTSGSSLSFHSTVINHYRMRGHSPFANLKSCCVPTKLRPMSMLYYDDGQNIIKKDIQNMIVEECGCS
# From the text: (§1) To determine activity of variant ActRIIB-Fc polypeptides, an A204 cell-based assay was used to compare effects among variant ActRIIB-Fc polypeptides on signaling by activin A, activin B, GDF8, GDF11, BMP9, and BMP10, in comparison to ActRIIB-G1Fc. In brief, this assay uses a human A204 rhabdomyosarcoma cell line (ATCC®: HTB-82™) derived from muscle and the reporter vector pGL3(CAGA)12 (Dennler et al., 1998, EMBO 17: 3091-3100) as well as a Renilla reporter plasmid (pRLCMV) to control for transfection efficiency. The CAGA12 motif is present in TGF-β responsive genes (e.g., PAI-1 gene), so this vector is of general use for ligands that can signal through Smad2/3, including activin A. GDF11, and BMP9.
# (§2) On day 1. A204 cells were transferred into one or more 48-well plates. On day 2, these cells were transfected with 10 μg pGL3(CAGA)12 or pGL3(CAGA)12(10 μg)+pRLCMV (1 pg) and Fugene. On day 3, ligands diluted in medium containing 0.1% BSA were preincubated with ActRIIB-Fc polypeptides for 1 hr before addition to cells. Approximately six hour later, the cells were rinsed with PBS and lysed. Cell lysates were analyzed in a luciferase assay to determine the extent of Smad activation.
# (§3) This assay was used to screen variant ActRIIB-Fc polypeptides for inhibitory effects on cell signaling by activin A, activin B. GDF8, GDF11. BMP9, and BMP10. Potencies of homodimeric Fc fusion polypeptides incorporating amino acid substitutions in the human ActRIIB extracellular domain were compared with that of an Fc fusion polypeptide comprising unmodified human ActRIIB extracellular domain, ActRIIB-G1Fc. For some variants tested, it was not possible to calculate an accurate IC50, but signs of inhibition in the slope of the curves were detectable. For these variants, an estimate was included of the order of magnitude of the relative IC50, i.e. >10 nM or >100 nM instead of a definite number. Such data points are indicated by a (*) in Table 3 below. For some variants tested, there was no detectable inhibition in the slope of the curves over the concentration range tested, which is indicated by “ND” in Table 4.
# as §1, with “A,” for “A, activin B, GDF8,”, “GDF11,” for “GDF11, BMP9,”, “and BMP9.” for “and BMP10, in comparison to ActRIIB-G1Fc.”, “(Dennler el” for “(Dennler et”, “activin A,” for “activin A.”
# as §2, with “1, A-204” for “1. A204”, “μg)” for “pg)”
# (§4) This assay was used to screen variant ActRIIB-Fc polypeptides for inhibitory effects on cell signaling by activin A, GDF11, and BMP9. Potencies of homodimeric Fc fusion polypeptides incorporating amino acid substitutions in the human ActRIIB extracellular domain were compared with that of an Fc fusion polypeptide comprising unmodified human ActRIIB extracellular domain.
# [2] = target: T2, BMP9 (Homo sapiens, UniProt Q9UK05); test: A204 cell-based pGL3(CAGA)12 reporter gene assay, signaling by BMP9; conditions: for Inhibitory Potency of Homodimeric ActRIIB-Fc Constructs IC50 BMP9: Table 5, A204 cells, luciferase reporter, ND: not detectable over concentration range tested
# T2 sequence (Q9UK05 320-429): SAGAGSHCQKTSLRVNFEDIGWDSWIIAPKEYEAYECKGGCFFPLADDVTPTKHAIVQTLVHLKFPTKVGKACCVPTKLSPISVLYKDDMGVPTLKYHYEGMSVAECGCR
# From the text: as §1, §2, §3
# as §1, with “A,” for “A, activin B, GDF8,”, “GDF11,” for “GDF11, BMP9,”, “and BMP9.” for “and BMP10, in comparison to ActRIIB-G1Fc.”, “(Dennler el” for “(Dennler et”, “activin A,” for “activin A.”
# as §2, with “1, A-204” for “1. A204”, “μg)” for “pg)”
# as §4
# [3] = target: T3, GDF11 (Homo sapiens, UniProt O95390); test: A204 cell-based pGL3(CAGA)12 reporter gene assay, signaling by GDF11; conditions: for Inhibitory Potency of Homodimeric ActRIIB-Fc Constructs IC50 GDF11: Table 5, A204 cells, luciferase reporter, ND: not detectable over concentration range tested
# T3 sequence (O95390 299-407): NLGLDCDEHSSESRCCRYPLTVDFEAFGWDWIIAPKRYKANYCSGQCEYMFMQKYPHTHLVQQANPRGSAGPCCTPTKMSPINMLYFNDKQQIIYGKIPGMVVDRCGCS
# From the text: as §1, §2, §3
# as §1, with “A,” for “A, activin B, GDF8,”, “GDF11,” for “GDF11, BMP9,”, “and BMP9.” for “and BMP10, in comparison to ActRIIB-G1Fc.”, “(Dennler el” for “(Dennler et”, “activin A,” for “activin A.”
# as §2, with “1, A-204” for “1. A204”, “μg)” for “pg)”
# as §4
# [4] = target: T2, BMP9; test: Biacore-based binding assay (surface plasmon resonance), BMP9; conditions: SPR 37° C., FIG. 9, compared to Fc fusion with unmodified ActRIIB extracellular domain
# Method: (§5) To determine ligand binding profiles of variant ActRIIB-Fc homodimers, a Biacore™-based binding assay was used to compare ligand binding kinetics of certain variant ActRIIB-Fc polypeptides. ActRIIB-Fc polypeptides to be tested were independently captured onto the system using an anti-Fc antibody. Ligands were then injected and allowed to flow over the captured receptor protein. ActRIIB-G1Fc was used as the control polypeptide.
# as §5, with “protein.” for “protein. ActRIIB-G1Fc was used as the control polypeptide.”
# A Biacore™-based binding assay was used to compare the ligand binding kinetics of an ActRIIB-Fc:ActRIIB(L79E)-Fc heterodimer with those of unmodified ActRIIB-Fc homodimer. Fusion proteins were captured onto the system using an anti-Fc antibody. Ligands were then injected and allowed to flow over the captured receptor protein at 37° C. Results are summarized in the table below, in which ligand off-rates (kd) most indicative of effective ligand traps are denoted in bold.
# [5] = target: T4, GDF11 (UniProt O95390 299-407); test: cell-based or functional assay
# T4 construct: also called Growth and differentiation factor-11; BMP11
# T4 sequence (looked up): T3 sequence (O95390 299-407)
Inhibitory Potency of Homodimeric ActRIIB-Fc Constructs IC50 Activin A [1] [µg/mL],Inhibitory Potency of Homodimeric ActRIIB-Fc Constructs IC50 BMP9 [2] [µg/mL],Inhibitory Potency of Homodimeric ActRIIB-Fc Constructs IC50 GDF11 [3] [µg/mL],Substance,also measured
0.762,~10,0.296,"E52K: homodimeric ActRIIB-Fc fusion, E52K substitution in human ActRIIB extracellular domain",
,~40,0.389,"F82W/N83A: homodimeric ActRIIB-Fc fusion, F82W and N83A substitutions in human ActRIIB extracellular domain",
,,0.276,"F82W: homodimeric ActRIIB-Fc fusion, F82W substitution in human ActRIIB extracellular domain",
0.396,5.5,0.365,"K55D: homodimeric ActRIIB-Fc fusion, K55D substitution in human ActRIIB extracellular domain",
0.206,0.777,0.318,"K55R: homodimeric ActRIIB-Fc fusion, K55R substitution in human ActRIIB extracellular domain",
,,0.234,"L79R: homodimeric ActRIIB-Fc fusion, L79R substitution in human ActRIIB extracellular domain",
,1.21,0.591,"R40A: homodimeric ActRIIB-Fc fusion, R40A substitution in human ActRIIB extracellular domain",

# Continued, substance first:
Substance,Inhibitory Potency of Homodimeric ActRIIB-Fc Constructs IC50 Activin A [1] [µg/mL],Inhibitory Potency of Homodimeric ActRIIB-Fc Constructs IC50 BMP9 [2] [µg/mL],Inhibitory Potency of Homodimeric ActRIIB-Fc Constructs IC50 GDF11 [3] [µg/mL],also measured
"A24N: homodimeric ActRIIB-Fc fusion, A24N substitution in human ActRIIB extracellular domain",0.128,0.409,0.099,
"E50K: homodimeric ActRIIB-Fc fusion, E50K substitution in human ActRIIB extracellular domain",0.132,0.721,0.18,
"E50P: homodimeric ActRIIB-Fc fusion, E50P substitution in human ActRIIB extracellular domain",0.756,~3,0.638,
"E52A: homodimeric ActRIIB-Fc fusion, E52A substitution in human ActRIIB extracellular domain",0.198,0.359,0.071,
F82I: homodimeric ActRIIB-G1Fc fusion with F82I substitution; mature SEQ ID NO: 39,,,,inhibition of activin A compared to fusion polypeptide with unmodified ActRIIB extracellular domain (in words) ([1]; A204 reporter gene assay): essentially undiminished inhibition of activin A and GDF11; inhibition of BMP9 compared to fusion polypeptide with unmodified ActRIIB extracellular domain (in words) ([2]; A204 reporter gene assay): less potent inhibition of BMP9; selectivity of antagonism (activin A and GDF11 over BMP9) compared to unmodified ActRIIB-Fc ([2]; A204 reporter gene assay): more selective antagonists of activin A and GDF11; reduction in affinity for BMP9 compared with reduction in affinity for GDF11 or activin A [4]: reduce ActRIIB binding affinity for BMP9 more than they reduce ActRIIB affinity for activin A or GDF11; reduction in affinity for BMP9 compared with reduction in affinity for GDF11 or activin A ([4]; listed as ActRIIB(F82I)-Fc): greater reduction in their affinity for BMP9 than for GDF11; inhibition of GDF11 compared to fusion polypeptide with unmodified ActRIIB extracellular domain (in words) ([3]; A204 reporter gene assay): essentially undiminished inhibition of activin A and GDF11
F82W (homodimeric ActRIIB-Fc construct) (Fc fusion),,,,"IC50 (ng/ml), A204 CAGA12 luciferase reporter assay [5]: 276 ng/mL"
"K74R: homodimeric ActRIIB-Fc fusion, K74R substitution in human ActRIIB extracellular domain",,0.165,0.045,
L79R (homodimeric ActRIIB-Fc construct) (Fc fusion),,,,"IC50 (ng/ml), A204 CAGA12 luciferase reporter assay [5]: 234 ng/mL"
Y60K (homodimeric ActRIIB-Fc construct) (Fc fusion),,,,"IC50 (ng/ml), A204 CAGA12 luciferase reporter assay [5]: 414 ng/mL"
"Y60K: homodimeric ActRIIB-Fc fusion, Y60K substitution in human ActRIIB extracellular domain",,,0.414,
Y60P (homodimeric ActRIIB-Fc construct) (Fc fusion),,,,"IC50 (ng/ml), A204 CAGA12 luciferase reporter assay [5]: 544 ng/mL"
"Y60P: homodimeric ActRIIB-Fc fusion, Y60P substitution in human ActRIIB extracellular domain",,,0.544,
